Data set [1] concerns the target T1, GFP-9S library array, motif 4 ND N98W;D124P (synthetic construct, N98W;D124P).
T1 chain: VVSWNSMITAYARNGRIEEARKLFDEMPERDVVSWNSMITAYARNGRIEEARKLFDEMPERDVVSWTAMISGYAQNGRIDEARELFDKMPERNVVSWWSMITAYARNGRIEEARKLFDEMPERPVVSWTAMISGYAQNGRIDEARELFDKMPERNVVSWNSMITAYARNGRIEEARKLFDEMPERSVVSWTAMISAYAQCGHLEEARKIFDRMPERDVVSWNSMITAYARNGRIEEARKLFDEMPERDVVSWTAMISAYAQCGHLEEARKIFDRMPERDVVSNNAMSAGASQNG
In words: high-throughput RNA pulldown from lysate on Ni-NTA beads; HRP: 50 mM Tris pH 8, 150 mM NaCl, 1 mM beta-mercaptoethanol, 50 ug/ml BSA, 3 ug/ml yeast RNA, 0.5% heparin; ITC and FP: Tris pH 8, 200 mM KCl, 5% glycerol; MST: 50 mM Tris pH 8, 200 mM NaCl, 1 mM DTT, BSA, heparin, 0.05% Tween 20. The note with it: tags: N-terminal His-eGFP.

In data set [2] the target is T2, 9S (synthetic construct).
T2 chain: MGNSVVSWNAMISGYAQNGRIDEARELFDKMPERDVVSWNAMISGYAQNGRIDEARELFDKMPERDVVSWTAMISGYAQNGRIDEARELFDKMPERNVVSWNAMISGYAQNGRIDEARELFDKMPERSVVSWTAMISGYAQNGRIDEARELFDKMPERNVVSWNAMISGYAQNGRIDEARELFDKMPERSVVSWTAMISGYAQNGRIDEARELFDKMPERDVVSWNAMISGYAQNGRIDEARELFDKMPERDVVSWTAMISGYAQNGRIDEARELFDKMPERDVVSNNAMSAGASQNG
Briefly: high-throughput RNA pulldown on Ni-NTA beads; HRP: 50 mM Tris pH 8, 150 mM NaCl, 1 mM beta-mercaptoethanol, 50 ug/ml BSA, 3 ug/ml yeast RNA, 0.5% heparin; ITC and FP: Tris pH 8, 200 mM KCl, 5% glycerol; MST: 50 mM Tris pH 8, 200 mM NaCl, 1 mM DTT, BSA, heparin, 0.05% Tween 20. Particulars: protein: recombinant; tags: N-terminal His-eGFP; label: 5' Cy5.

Data set [3] concerns the target T3, 9P-S2 (synthetic construct).
T3 chain: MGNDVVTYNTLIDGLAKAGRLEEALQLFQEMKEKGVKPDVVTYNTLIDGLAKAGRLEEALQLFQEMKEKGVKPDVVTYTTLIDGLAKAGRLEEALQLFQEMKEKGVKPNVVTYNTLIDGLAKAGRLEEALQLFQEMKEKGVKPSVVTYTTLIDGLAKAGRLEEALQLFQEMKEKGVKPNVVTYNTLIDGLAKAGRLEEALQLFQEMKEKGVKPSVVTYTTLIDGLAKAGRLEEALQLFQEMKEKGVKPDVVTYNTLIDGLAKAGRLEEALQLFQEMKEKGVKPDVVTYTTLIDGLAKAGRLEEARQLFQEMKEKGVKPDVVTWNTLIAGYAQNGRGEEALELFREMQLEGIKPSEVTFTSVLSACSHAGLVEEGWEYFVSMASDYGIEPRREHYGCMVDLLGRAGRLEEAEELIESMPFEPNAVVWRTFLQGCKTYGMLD
Described as above. The note with it: protein: recombinant; tags: N-terminal TRX-His; label: 5' Cy5.

In data set [4] the target is T4, 9S-S2 PPR (synthetic construct).
T4 chain: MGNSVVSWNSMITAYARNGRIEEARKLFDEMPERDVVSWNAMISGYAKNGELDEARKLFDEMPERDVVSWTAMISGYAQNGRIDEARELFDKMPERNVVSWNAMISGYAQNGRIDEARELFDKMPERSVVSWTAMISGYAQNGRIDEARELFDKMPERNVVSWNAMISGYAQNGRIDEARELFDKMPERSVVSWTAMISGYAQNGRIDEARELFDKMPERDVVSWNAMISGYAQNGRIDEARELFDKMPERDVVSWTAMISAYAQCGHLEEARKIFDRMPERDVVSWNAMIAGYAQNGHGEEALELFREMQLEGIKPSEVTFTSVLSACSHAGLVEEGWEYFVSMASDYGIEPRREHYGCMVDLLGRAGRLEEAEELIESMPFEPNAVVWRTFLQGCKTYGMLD
The data set is described as above. The note with it: protein: recombinant; tags: N-terminal TRX-His; label: 5' Cy5.

For data set [5], the target named is T5, 9S-E2 (synthetic construct).
T5 chain: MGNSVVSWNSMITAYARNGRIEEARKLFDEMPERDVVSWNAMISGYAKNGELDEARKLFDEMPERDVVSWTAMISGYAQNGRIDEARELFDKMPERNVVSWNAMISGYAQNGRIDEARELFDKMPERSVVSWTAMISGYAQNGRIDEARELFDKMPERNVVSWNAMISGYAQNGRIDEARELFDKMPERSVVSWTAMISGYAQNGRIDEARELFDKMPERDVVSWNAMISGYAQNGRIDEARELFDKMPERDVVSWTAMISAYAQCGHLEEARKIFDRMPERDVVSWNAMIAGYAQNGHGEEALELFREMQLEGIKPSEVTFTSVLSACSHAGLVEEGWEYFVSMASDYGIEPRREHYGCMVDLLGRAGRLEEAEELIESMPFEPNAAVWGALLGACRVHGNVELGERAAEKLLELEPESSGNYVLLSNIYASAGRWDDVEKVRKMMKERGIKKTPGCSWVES
Briefly: microscale thermophoresis; HRP: 50 mM Tris pH 8, 150 mM NaCl, 1 mM beta-mercaptoethanol, 50 ug/ml BSA, 3 ug/ml yeast RNA, 0.5% heparin; ITC and FP: Tris pH 8, 200 mM KCl, 5% glycerol; MST: 50 mM Tris pH 8, 200 mM NaCl, 1 mM DTT, BSA, heparin, 0.05% Tween 20. Particulars: protein: recombinant; tags: N-terminal TRX-His; label: 5' Cy5.

B1: IR-rpoA-A (ssRNA)
RNA: AUUAAACGUGA
Molecule B1 gave a Kd in data set [1] (label: 5' IRDye 800CW) of 579 nM.

B2: Cy5-rpoA (ssRNA)
RNA: AUUACACGUGA
Take B2: the Kd in data set [1] (label: 5' Cy5) was 230 nM; in data set [2], 12 nM; in data set [3], 68 nM; in data set [4], 6.4 nM; in data set [5], 6.8 nM.

B3: Cy5-rpoA-G (ssRNA)
RNA: AUUAGACGUGA
B3 showed a dissociation constant Kd in data set [1] (label: 5' Cy5) of 215 nM.

B4: IR-rpoA-U (ssRNA)
RNA: AUUAUACGUGA
Consider B4, for which binding in data set [1] (label: 5' IRDye 800CW) was put at a Kd of 526 nM.

These data come from paper PMC8809517, “Cofactor-independent RNA editing by a synthetic S-type PPR protein”.
